In publication PMC5093203 (Pharmaceutical Research, 2016):
Marks after values point to notes of the source that are not given here.

Assays:
[1] = set-up: method as in 2 sources, ref 28 = [28]; PMID 22353017; doi:10.1021/mp200470c; 28. Gokarn YR McLean M Laue TM Effect of PEGylation on protein hydrodynamics Mol Pharm 2012 9 4 762 73 10.1021/mp200470c 22353017 ||| ref 28, 34, 35 = [28]; PMID 22353017; doi:10.1021/mp200470c; 28. Gokarn YR McLean M Laue TM Effect of PEGylation on protein hydrodynamics Mol Pharm 2012 9 4 762 73 10.1021/mp200470c 22353017 || [34]; PMID 23499718; doi:10.1016/j.jconrel.2013.03.006; 34. Kaminskas LM Ascher DB McLeod VM Herold MJ Le CP Sloan EK PEGylation of interferon alpha2 improves lymphatic exposure after subcutaneous and intravenous administration and improves antitumour effi || [35]; PMID 19686787; doi:10.1016/j.jconrel.2009.08.005; 35. Kaminskas LM Kota J McLeod VM Kelly BD Karellas P Porter CJ PEGylation of polylysine dendrimers improves absorption and lymphatic targeting following SC administration in rats J Controlled Release; conditions: 14.3-kDa egg white lysozyme with vs without 20-kDa PEG; cited from earlier work
[2] = Hydrodynamic size by dynamic light scattering (DLS); type: physicochemical; conditions: 25 ± 1°C, 90° scattering angle, 633 nm, ~85 μM in 1x PBS, viscosity-corrected
Protocol: Weighed-samples of freeze-dried powder were dissolved in 1x phosphate-buffered saline (PBS) to a final concentration of ~85 μM. Concentrated protein stock solutions were diluted ~20-fold in 1 × PBS buffer to achieve a final concentration of ~85 μM. Protein concentrations (OD276 (1 mg/ml) = 1 for a 1 cm cuvette) were measured by NanoDrop (Thermo Fisher Scientific, Waltham, MA, USA). All samples were filtered through Whatman Anatop10™ low protein-binding filters (Whatman, Kent, UK) before the DLS experiments. Solution viscosity was measured by an m-VROC® (RheoSense, Inc., San Ramon, CA, USA) viscometer and light scattering data were corrected using the measured viscosity.
DLS measurements were carried out at 25 ± 1°C at a 90° scattering angle using an ALV/CGS-3 Compact Goniometer system with ALV/LSE-5003 Light Scattering Electronics and Multiple Tau Digital Correlator (ALV®-GmbH, Langen, Germany). The laser operating wavelength was 633 nm. The apparent hydrodynamic radius Rh was estimated via the Stoke-Einstein equation (Eq. 1):1 Rh=kBT/6πηD where, Rh is the apparent hydrodynamic radius (m), kB is the Boltzmann constant (kg^●m^2/s^2●K), T is the absolute temperature (K), η is the viscosity (kg/m•s), and D is the diffusion constant (m^2/s). DH is the apparent hydrodynamic diameter in nm or 2 Rhinnm . The viscosity measurement was performed with a solution concentration of 0.49 ± 0.02 mg/mL at 25°C. Viscosity mean and SD was determined from n ≥8 and reported as cP, (g/cm•s) = 10^−3 × Pa•s (kg/m•s)

[3] = LDC sheep, SC commercially formulated human insulin; cited from earlier work
[4] = set-up: species or system Sprague Dawley rats; conditions: rat, in vivo, iv
Protocol: The 5/6-nephrectomized and sham male Sprague Dawley rats were obtained from Taconic Farms (Albany, NY, USA). Animals were housed two per cage in polycarbonate cages with filter tops. Animals were maintained on a 12/12 h light/dark cycle (lights on at 6:00 AM). All animals received water and LabDiet 5001 (PMI Nutrition International, Brentwood, MO, USA) ad libitum. Animals were monitored daily during the 5-week time frame that allowed progression of the disease state. Seven weeks post-surgery, blood was collected by tail clip into serum tubes for measurement of serum creatinine and blood urea nitrogen. Three days later, urine was collected for 24 h from animals housed in metabolism cages. […]
BIL concentrations in serum and lymph were determined by ELISA performed by the bioanalytical testing facility Charles River Laboratories Preclinical Services (Senneville, Quebec, Canada) as described previously for rat serum ([27]). The assay quantitation range for rat serum was 20 pM to 500 pM. […] Samples above the upper limit of quantitation were diluted and reanalyzed to gain results within the calibrated range. […]
Noncompartmental pharmacokinetic parameters for the rat study were determined using WinNonlin® professional v5.3 (Pharsight, St. Louis, MO, USA) and for the sheep study using Watson^TM (version 7.4.2 PRD872, Thermo Fisher Scientific, Inc). […] Descriptive statistics were calculated as appropriate. […]

[5] = rat, in vivo, sc; cited from earlier work
[6] = Serum pharmacokinetics in non-LDC sheep (IV, SC); type: in vivo, merino sheep
Protocol: (§1) Surgery was performed under aseptic conditions.
(§2) Blood samples (3 mL) were collected into 4 mL serum collection tubes (Becton, Dickinson and Company, Scoresby, Victoria, Australia) at the following time points (hour): predose, […] (1 min, IV only), 0.083 (5 min, IV only), 0.25 (15 min, IV only), 0.5, 1, 2, 3 (SC LDC only), 4, 6, 8, 10, 12 (all IV and SC LDC), 18 (SC non-LDC only), 30 (all SC), 39 (SC non-LDC only), 48 (all SC), 54 (all SC), 72 (all SC), 96 (SC LDC only), and 120 (SC LDC only) hours postdose. The jugular cannula was flushed with heparinized saline (50 IU/mL) between samples to maintain patency. Blood samples were allowed to stand at room temperature for up to 1 h and were then centrifuged for 10 min 6000 rpm to separate serum.
(§3) Noncompartmental pharmacokinetic parameters for the rat study were determined using WinNonlin® professional v5.3 (Pharsight, St. Louis, MO, USA) and for the sheep study using Watson^TM (version 7.4.2 PRD872, Thermo Fisher Scientific, Inc). Concentrations below the lower limit of quantitation were assigned a value of zero and the zero result used in the calculation of means and standard deviation using MicroSoft® Office® Excel® 2010 (version 14.0.; Redmond, WA). Descriptive statistics were calculated as appropriate. SigmaPlot® v11 (Systsat Software, IC., San Jose, CA, USA) and Excel® were used for the graphics.

[7] = in vivo; cited from earlier work
[8] = Serum pharmacokinetics in lymph duct cannulated (LDC) sheep (IV, SC); set-up: species or system merino sheep; conditions: in vivo
Protocol: as §1, §2, §3

[9] = in vivo, sc
Protocol: Using a parallel group design, BIL was administered by single dose SC injection to non-LDC control sheep and to LDC sheep with a surgically placed popliteal lymph duct cannula (Table I). Blood was collected in each group, and lymph was continuously collected in the LDC sheep. BIL was also administered by bolus IV injection to a separate group of non-LDC animals for determining bioavailability and PK linearity.
Surgery was performed under aseptic conditions. Castrated male merino sheep (H.M. Barty & Sons Merino Stud, Robinvale, Victoria, Australia) weighing 31–48 kg were used. […]
In LDC sheep, lymph samples were collected in pre-weighed tubes containing 10 μL/mL of 10% EDTA at the following time points: Predose, 0–1, 1–2, 2–3, 3–4, 4–5, 5–6, 6–7, 7–8, 8–9, 9–10, 10–11, 11–12, 12–24, 24–36, 36–48, 48–60, 60–72, 72–84, 84–96 h post dose. At each time interval, the amount of lymph collected was determined gravimetrically. […]
BIL concentrations in serum and lymph were determined by ELISA performed by the bioanalytical testing facility Charles River Laboratories Preclinical Services (Senneville, Quebec, Canada) as described previously for rat serum ([27]). The assay quantitation range for rat serum was 20 pM to 500 pM. Assay quantitation range for sheep serum was from 20 pM to 500 pM. […] The quantitation range for sheep lymph was also 20 to 500 pM. […]

[10] = non-LDC sheep, SC 120 nmol, serum, mean ± SD, N = 5

In the case of “20-kDa PEG egg white lysozyme: 14.3-kDa egg white lysozyme with addition of 20-kDa PEG”, the hydrodynamic diameter [1] is given as 9.6 nm.
In the case of egg white lysozyme, the hydrodynamic diameter [1] is given as 4.0 nm.
For insulin, the “apparent hydrodynamic diameter (DH)” value [2] is listed as 2.1 nm and the “% of the insulin dose recovered in the peripheral lymph” value [3] is listed as 17.3%.
In the case of insulin peglispro [BIL], the “clearance in sham versus 5/6-nephrectomized rats (in words)” value [4] is given as “similar”, the “apparent hydrodynamic diameter (DH)” value [2] is given as 7.6 nm and the “% of dose excreted unchanged in urine” value [5] is given as 2.5%. It also gave an AUC0-t ([6]; in vivo, iv, 20 nmol) of 0.0125667 ± 0.0018009 µM·h, a C0 ([6]; in vivo, iv, 20 nmol) of 11.133 ± 1.234 nM and a CL ([6]; in vivo, iv, 20 nmol) of 0.70 ± 0.09 mL/min/kg. For the same substance, the T1/2 ([6]; in vivo, iv, 20 nmol) was 1.6 ± 0.1 h, the Vdss ([6]; in vivo, iv, 20 nmol) was 0.05 ± 0.01 L/kg and the AUC0-t ([6]; in vivo, iv, 40 nmol) was 0.040075 ± 0.0124583 µM·h. For the same substance, the C0 ([6]; in vivo, iv, 40 nmol) was 27.9 ± 6.124 nM, the CL ([6]; in vivo, iv, 40 nmol) was 0.53 ± 0.21 mL/min/kg and the T1/2 ([6]; in vivo, iv, 40 nmol) was 2.8 ± 0.3 h. For the same substance, the Vdss ([6]; in vivo, iv, 40 nmol) was 0.04 ± 0.01 L/kg, the AUC0-t ([6]; in vivo, iv, 120 nmol) was 0.1116667 ± 0.0150444 µM·h and the C0 ([6]; in vivo, iv, 120 nmol) was 60.4 ± 1.039 nM. For the same substance, the CL ([6]; in vivo, iv, 120 nmol) was 0.47 ± 0.06 mL/min/kg, the T1/2 ([6]; in vivo, iv, 120 nmol) was 3.3 ± 1.2 h and the Vdss ([6]; in vivo, iv, 120 nmol) was 0.07 ± 0.04 L/kg. The “% bioavailability” value ([6]; in vivo, sc) was 123%, the AUC0-t ([6]; in vivo, sc, 120 nmol) was 0.14296 ± 0.0838207 µM·h and the T1/2 [6, 10] was 7.5 ± 5.1 h. For the same substance, the Tmax [6, 10] was 2.4 ± 0.9 h, the “PK properties in renal insufficiency (in words)” value [7] was “unaffected” and the AUC0-t ([8]; iv, 120 nmol) was 0.1395 ± 0.0606932 µM·h. For the same substance, the C0 ([8]; iv, 120 nmol) was 70.175 ± 13.6001 nM, the CL ([8]; iv, 120 nmol) was 0.37 ± 0.12 mL/min/kg and the T1/2 ([8]; iv, 120 nmol) was 5.7 ± 2.1 h. The Vdss ([8]; iv, 120 nmol) was 0.04 ± 0.01 L/kg, the “% bioavailability” value ([8]; sc) was under 2% and the “% bioavailability” value ([8]; sc, 120 nmol) was 1.7%. The AUC0-t ([8]; sc, 120 nmol) was 0.0025945 ± 0.0025636 µM·h, the Cmax ([8]; sc, 120 nmol) was 0.4153 ± 0.384 nM and the T1/2 ([8]; sc, 120 nmol) was 4.6 ± 4.0^a hours. The Tmax ([8]; sc, 120 nmol) was 2.3 ± 1.0 h and the “% of dose recovered in the peripheral lymph” value [9] was 88%.
With leptin the “apparent hydrodynamic diameter (DH)” value [2] was 4.3 nm and the “apparent hydrodynamic diameter (DH)” value ([2]; listed as Leptin) was 4.2 nm.
